Test results as given in patent publication US6602854B1, “Branched multimeric Apo A-I agonist compounds” (priority 1997, dated 2003).

Legend:
[1] = Pharmacokinetics in mice (radiolabeled peptide, intraperitoneal); type: in vivo; conditions: for HALF-LIFE: 2.5 mg/kg intraperitoneal
Experimental: In each experiment, 2.5 mg/kg radiolabeled peptide was injected intraperitoneally into mice which were fed normal mouse chow or the atherogenic Thomas-Harcroft modified diet (resulting in severely elevated VLDL and IDL cholesterol). Blood samples were taken at multiple time intervals for assessment of radioactivity in plasma.

[2] = Experimental: […] (test sample). Delipidation was carried out by extracting the lipids with an equal volume of 2:1 (v/v) chloroform:methanol.
The samples were loaded onto a reverse-phase C18 HPLC column and eluted with a linear gradient (25-58% over 33 min.) of acetonitrile (containing 0.1% TFA). Elution profiles were followed by absorbance (220 nm) and radioactivity.

[3] = HDL cholesterol in rabbits after injection of phospholipid/peptide complexes; type: in vivo, Male New Zealand White rabbits; set-up: HDL Cholesterol: unit not given here
Experimental: Small discoidal particles consisting of phospholipid (DPPC) and peptide were prepared following the cholate dialysis method. The phospholipid was dissolved in chloroform and dried under a stream of nitrogen. The peptide was dissolved in buffer (saline) at a concentration of 1-2 mg/ml. The lipid film was redissolved in buffer containing cholate (43° C.) and the peptide solution was added at a 3:1 phospholipid/peptide weight ratio. The mixture was incubated overnight at 43° C. and then dialyzed at 43° C. (24 hr.), room temperature (24 hr.) and 4° C. (24 hr.), with three changes of buffer (large volumes) at temperature point. The complexes were filter sterilized (0.22 μm) for injection and storage at 4° C.
Male New Zealand White rabbits (2.5-3 kg) were injected intravenously with a dose of phospholipid/peptide complex (5 or 10 mg/kg bodyweight, expressed as peptide) in a single bolus injection not exceeding 10-15 ml. The animals were slightly sedated before the manipulations. Blood samples (collected on EDTA) were taken before and 5, 15, 30, 60, 240 and 1440 minutes after injection. The hematocrit (Hct) was determined for each sample. Samples were aliquoted and stored at −20° C. before analysis.
Plasma Lipids. The total plasma cholesterol, plasma triglycerides and plasma phospholipids were determined enzymatically using commercially available assays according to the manufacturer's protocols (Boehringer Mannheim, Mannheim, Germany and Biomerieux, 69280, Marcy-L'étoile, France).
Lipoprotein Profiles. The plasma lipoprotein profiles of the fractions obtained after the separation of the plasma into its lipoprotein fractions were determined by spinning in a sucrose density gradient. The fractions were collected and in each individual fraction the phospholipid and cholesterol content was measured enzymatically.

[4] = Circular dichroism: degree of helicity (free, SUVs, micelles, TFE); conditions: for % Helicity Free: free in buffer
Procedure, shortened: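 Far-UV CD (190–260 nm) at 37 °C on 5 μM peptide in 5 mM phosphate pH 7.4, either free, with EPC:Chol 20:1 SUVs (Ri 30 or 50), with lysophosphatidylcholine micelles (Ri 100), or in 90% TFE. Helicity derived from mean residue ellipticity at 222 nm or CONTIN fitting to reference spectra.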

## PVLDLFRELLNELLEALKQKLK [peptide 4]
[1]; ApoE knockout mice
  maximum serum concentration reached: ^5The maximum serum concentration reached was 17.4% injected % injected cpm
  time of maximum serum concentration following injection: cpm at 1.46 hours following injection. r^2 = 0.973.
  HALF-LIFE: 14.2^5 hours
[1]; C57BL/6 mice, normal diet
  maximum serum concentration reached: ^1The maximum serum concentration reached was 25.7% injected % injected cpm
  time of maximum serum concentration following injection: cpm at 1.9 hours following injection. r^2 = 0.960.
  HALF-LIFE: 5.72^1 hours
[1]; C57Bl/6 mice, high fat diet
  time of maximum serum concentration following injection: cpm at 2.98 hours following injection. r^2 = 0.973.
  HALF-LIFE: 5.98^2 hours
[1]; mice, intraperitoneal
  association with plasma components in mice (in words): associated with the HDL component
  time the peptide remained stable in the circulation: at least 6 hours
[2]; 8 day incubation in human serum, 37° C.
  peptide remaining intact: more than 80%
[2]; human plasma, 8 days at 37° C.
  degraded peptide (3 min. peak), share of total radioactivity: approximately 15%
[3]; 10 mg/kg i.v. as peptide/DPPC complexes, 15 min.
  HDL Cholesterol: 428
[3]; 10 mg/kg i.v. as peptide/DPPC complexes, time not printed (row between 0 and 15 min.)
  HDL Cholesterol: 408
[3]; 10 mg/kg, 15 min.
  Increase in HDL Cholesterol: 31.3%
[3]; 10 mg/kg, 60 min.
  HDL Cholesterol: 387
  Increase in HDL Cholesterol: 18.9%
[3]; 10 mg/kg, 240 min.
  HDL Cholesterol: 291
  Increase in HDL Cholesterol: −10.7%
[3]; 10 mg/kg, 1440 min.
  HDL Cholesterol: 347
  Increase in HDL Cholesterol: 6.6%
[3]; 10 mg/kg, apparent at 5 min. following injection
  duration of the increase in cholesterol of the HDL fractions: approximately 1 hr
[3]; 10 mg/kg, time not printed (row between 0 and 15 min.)
  Increase in HDL Cholesterol: 25.2%
[4]
  % helicity in the presence of SUVs: 97%
  % helicity in the presence of TFE: 94%
[4]; peptide concentration 0.15 μM
  % Helicity Bound (micelles): 65%
  % Helicity Free: 42%
[4]; peptide concentration 0.40 μM
  % Helicity Bound (micelles): 68%
  % Helicity Free: 58%
[4]; peptide concentration 2.0 μM
  % Helicity Free: 63%
[4]; peptide concentration 5.0 μM
  % Helicity Bound (micelles): 95%
  % Helicity Free: 80%
[4]; peptide concentration 50.0 μM
  % Helicity TFE: 94%
[4]; percent helicity of free, unbound peptide
  He (%) free: 80%
[4]; percent helicity of peptide-SUV complexes
  He (%) SUVs: 97%
[4]; percent helicity of peptide-TFE solution
  He (%) TFE: 94%
[4]; percent helicity of peptide-micelle complexes
  He (%) mics: 95%
[4]; temperature range of 5-45° C., data not shown
  stability of the α-helical structure with temperature: completely stable
